Measurements taken from article PMC8800115, “The ASCC2 CUE domain in the ALKBH3–ASCC DNA repair complex recognizes adjacent ubiquitins in K63-linked polyubiquitin” (The Journal of Biological Chemistry, 2021).

Target: T1, K63-linked diubiquitin (UniProt P0CG48 1-76; P0CG48 1-76, K48R | K63R | D77 extension, distal ubiquitin: C-terminal G76 in an isopeptide bond with K63 of the proximal ubiquitin | proximal ubiquitin: K63 in an isopeptide bond with G76 of the distal ubiquitin)
T1 construct: ubiquitin, residues 1 to 76, K48R/K63R; distal position of K63Ub2; ubiquitin, residues 1 to 76, with a D77 extension; proximal position of K63Ub2; Two ubiquitins joined covalently; For NMR either the distal or the proximal ubiquitin was 15N-labelled; also called K63Ub2; WT K63Ub2
Assay: ITC; MicroCal iTC200; proteins dialysed in 20 mM Hepes pH 7.5, 150 mM NaCl, 200 μM TCEP; 2-μl injections; who was in the cell is not given; ranges of Kd are from fits with N fixed to 1 (first value: active concentration in the cell varied, second: in the syringe); Kd of S470R and E467R/S470R called apparent
Conditions: both partners purified

B1: full-length ASCC2 (natural protein, human, UniProt Q9H1I8 1-757, looked up)
chain: MPALPLDQLQITHKDPKTGKLRTSPALHPEQKADRYFVLYKPPPKDNIPALVEEYLERATFVANDLDWLLALPHDKFWCQVIFDETLQKCLDSYLRYVPRKFDEGVASAPEVVDMQKRLHRSVFLTFLRMSTHKESKDHFISPSAFGEILYNNFLFDIPKILDLCVLFGKGNSPLLQKMIGNIFTQQPSYYSDLDETLPTILQVFSNILQHCGLQGDGANTTPQKLEERGRLTPSDMPLLELKDIVLYLCDTCTTLWAFLDIFPLACQTFQKHDFCYRLASFYEAAIPEMESAIKKRRLEDSKLLGDLWQRLSHSRKKLMEIFHIILNQICLLPILESSCDNIQGFIEEFLQIFSSLLQEKRFLRDYDALFPVAEDISLLQQASSVLDETRTAYILQAVESAWEGVDRRKATDAKDPSVIEEPNGEPNGVTVTAEAVSQASSHPENSEEEECMGAAAAVGPAMCGVELDSLISQVKDLLPDLGEGFILACLEYYHYDPEQVINNILEERLAPTLSQLDRNLDREMKPDPTPLLTSRHNVFQNDEFDVFSRDSVDLSRVHKGKSTRKEENTRSLLNDKRAVAAQRQRYEQYSVVVEEVPLQPGESLPYHSVYYEDEYDDTYDGNQVGANDADSDDELISRRPFTIPQVLRTKVPREGQEEDDDDEEDDADEEAPKPDHFVQDPAVLREKAEARRMAFLAKKGYRHDSSTAVAGSPRGHGQSRETTQERRKKEANKATRANHNRRTMADRKRSKGMIPS
notes: source: E. coli Rosetta (DE3), purified (HisTrap, Superdex 200)
stoichiometry N: 1 ASCC2 per K63Ub2
